Several values for one entry are separate records, joined by “and”; a condition that tells them apart may be missing. Equal values may be shown once.
Key:
human BCMA [1] = biological target: T1, human BCMA (human, UniProt Q02223 1-184); assay: FACS on HEK293T/hBCMA cells, Experiment 3
T1 construct: whole, on cells; also called hBCMA; TNFRSF17
T1 sequence (looked up): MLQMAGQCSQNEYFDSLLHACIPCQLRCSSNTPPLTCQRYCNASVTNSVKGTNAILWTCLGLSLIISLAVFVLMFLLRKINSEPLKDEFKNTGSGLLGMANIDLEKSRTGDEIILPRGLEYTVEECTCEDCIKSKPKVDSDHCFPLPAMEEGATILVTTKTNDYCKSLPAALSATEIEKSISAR

human BCMA [2] = biological target: T1, human BCMA; assay: FACS on NCI-H929 cells
human BCMA [3] = biological target: T1, human BCMA; assay: FACS on HEK293T/hBCMA cells, Experiment 2
cynomolgus monkey BCMA = biological target: T2, cynomolgus monkey BCMA (cynomolgus monkey, UniProt A0A2K5UD97 1-183); assay: FACS on HEK293T/cyno BCMA cells
T2 construct: whole, on cells; also called cyno BCMA
T2 sequence (A0A2K5UD97 entry or part of it): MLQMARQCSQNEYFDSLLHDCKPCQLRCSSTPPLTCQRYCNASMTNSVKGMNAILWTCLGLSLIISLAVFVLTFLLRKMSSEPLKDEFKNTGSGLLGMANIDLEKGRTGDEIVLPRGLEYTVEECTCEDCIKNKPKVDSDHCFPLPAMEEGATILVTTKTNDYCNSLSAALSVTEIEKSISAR

[4] = biological target: T3, human 4-1BB (tumor necrosis factor receptor superfamily member 9) (human, UniProt Q07011 24-255); assay: flow cytometry (FACS) on CHO-K1/hu 4-1BB cells
T3 construct: whole, on cells; also called hu 4-1BB; CD137
T3 sequence (Q07011 24-255): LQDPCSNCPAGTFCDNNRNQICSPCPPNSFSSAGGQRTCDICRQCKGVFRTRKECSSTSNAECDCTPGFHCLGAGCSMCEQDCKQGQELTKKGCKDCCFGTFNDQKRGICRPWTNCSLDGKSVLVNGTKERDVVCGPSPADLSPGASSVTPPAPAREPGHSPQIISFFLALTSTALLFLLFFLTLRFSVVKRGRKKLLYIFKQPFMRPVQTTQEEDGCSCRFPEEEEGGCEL

B1: PR002309 (bispecific antibody, human IgG1, lambda, L234A L235A)
light: QAVVTQEPSLTVSPGGTVTLTCRSSTGAVTTSNYANWVQQKPGQAPRGLIGGTNKRAPWTPARFSGSLLGDKAALTLLGAQPEDEAEYFCALWYSNLWVFGGGTKLTVLGQPKAAPSVTLFPPSSEELQANKATLVCLISDFYPGAVTVAWKADSSPVKAGVETTTPSKQSNNKYAASSYLSLTPEQWKSHRSYSCQVTHEGSTVEKTVAPTECS
heavy: EVQLLESGGGLVQPGGSLRLSCAASGFTFSTYAMNWVRQAPGKGLEWVSRIRSKYNNYATYYADSVKDRFTISRDDSKSTLYLQMNSLRAEDTAVYYCVRHGNFGNSYVSWFAYWGQGTLVTVSSASTKGPSVFPLAPSSKSTSGGTAALGCLVKDYFPEPVTVSWNSGALTSGVHTFPAVLQSSGLYSLSSVVTVPSSSLGTQTYICNVNHKPSNTKVDKKVEPKSCDKTHTCPPCPAPEAAGGPSVFLFPPKPKDTLMISRTPEVTCVVVDVSHEDPEVKFNWYVDGVEVHNAKTKPREEQYNSTYRVVSVLTVLHQDWLNGKEYKCKVSNKALGAPIEKTISKAKGQPREPQVYTLPPCREEMTKNQVSLWCLVKGFYPSDIAVEWESNGQPENNYKTTPPVLDSDGSFFLYSKLTVDKSRWQQGNVFSCSVMHEALHNHYTQKSLSLSPGK
chain: EVQLVETGGGLIQPGGSLRLSCAASGFTVSDNYMTWVRQAPGKGLEWVSVIFSGGNTYYADSVKGRFTISRDNAKNTLYLQMNSLRAEDTALYYCARRNYDDTRGTDVFDIWGQGTMVTVSSRTGGGGSGGGGSGGGGSKLEVQLVETGGGLIQPGGSLRLSCAASGFTVSDNYMTWVRQAPGKGLEWVSVIFSGGNTYYADSVKGRFTISRDNAKNTLYLQMNSLRAEDTALYYCARRNYDDTRGTDVFDIWGQGTMVTVSSASEPKSSDKTHTCPPCPAPEAAGGPSVFLFPPKPKDTLMISRTPEVTCVVVDVSHEDPEVKFNWYVDGVEVHNAKTKPREEQYNSTYRVVSVLTVLHQDWLNGKEYKCKVSNKALGAPIEKTISKAKGQPREPQVCTLPPSREEMTKNQVSLSCAVKGFYPSDIAVEWESNGQPENNYKTTPPVLDSDGSFFLVSKLTVDKSRWQQGNVFSCSVMHEALHNHYTQKSLSLSPGK
In the case of B1, the EC50 (human BCMA [1]) is reported as 0.259 nM, the “Maximum MFI” value (human BCMA [1]) is reported as 100000 and the EC50 (human BCMA [2]) is reported as 1.73 nM and 1.34 nM. The EC50 (human BCMA [3]) was 0.355 nM and the “Maximum MFI” value (human BCMA [3]) was 15000.

B2: PR002895 (bispecific antibody, human IgG1, lambda, L234A L235A)
light: QAVVTQEPSLTVSPGGTVTLTCRSSTGAVTTSNYANWVQQKPGQAPRGLIGGTNKRAPWTPARFSGSLLGDKAALTLLGAQPEDEAEYFCALWYSNLWVFGGGTKLTVLGQPKAAPSVTLFPPSSEELQANKATLVCLISDFYPGAVTVAWKADSSPVKAGVETTTPSKQSNNKYAASSYLSLTPEQWKSHRSYSCQVTHEGSTVEKTVAPTECS
heavy: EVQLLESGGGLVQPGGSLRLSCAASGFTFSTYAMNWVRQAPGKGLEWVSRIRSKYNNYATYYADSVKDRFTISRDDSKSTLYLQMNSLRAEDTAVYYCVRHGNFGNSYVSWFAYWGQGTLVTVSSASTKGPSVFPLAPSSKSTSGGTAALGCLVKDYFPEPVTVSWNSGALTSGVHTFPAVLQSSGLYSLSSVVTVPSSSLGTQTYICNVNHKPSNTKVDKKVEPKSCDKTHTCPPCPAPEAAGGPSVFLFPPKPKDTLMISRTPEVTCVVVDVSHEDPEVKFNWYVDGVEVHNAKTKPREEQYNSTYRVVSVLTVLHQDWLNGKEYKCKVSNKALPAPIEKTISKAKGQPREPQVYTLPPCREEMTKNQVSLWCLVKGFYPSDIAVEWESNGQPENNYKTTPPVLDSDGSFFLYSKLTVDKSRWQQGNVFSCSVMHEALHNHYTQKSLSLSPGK
chain: EVQLVETGGGLIQPGGSLRLSCAASGFTVSDNYMTWVRQAPGKGLEWVSVIFSGGNTYYADSVKGRFTISRDNAKNTLYLQMNSLRAEDTALYYCARRNYDDTRGTDVFDIWGQGTMVTVSSGGGGSGGGGSGGGGSEVQLVETGGGLIQPGGSLRLSCAASGFTVSDNYMTWVRQAPGKGLEWVSVIFSGGNTYYADSVKGRFTISRDNAKNTLYLQMNSLRAEDTALYYCARRNYDDTRGTDVFDIWGQGTMVTVSSASEPKSSDKTHTCPPCPAPEAAGGPSVFLFPPKPKDTLMISRTPEVTCVVVDVSHEDPEVKFNWYVDGVEVHNAKTKPREEQYNSTYRVVSVLTVLHQDWLNGKEYKCKVSNKALPAPIEKTISKAKGQPREPQVCTLPPSREEMTKNQVSLSCAVKGFYPSDIAVEWESNGQPENNYKTTPPVLDSDGSFFLVSKLTVDKSRWQQGNVFSCSVMHEALHNHYTQKSLSLSPGK
B2 was tested, and the EC50 (human BCMA [1]) was 0.183 nM, the “Maximum MFI” value (human BCMA [1]) was 93200 and the EC50 (human BCMA [2]) was 1.53 nM and 2.01 nM. For the same binder, the EC50 (human BCMA [3]) was 0.385 nM and the “Maximum MFI” value (human BCMA [3]) was 14000.

B3: PR002956 (bispecific antibody, human IgG1, lambda, L234A L235A)
light: QAVVTQEPSLTVSPGGTVTLTCRSSTGAVTTSNYANWVQQKPGQAPRGLIGGTNKRAPWTPARFSGSLLGDKAALTLLGAQPEDEAEYFCALWYSNLWVFGGGTKLTVLGQPKAAPSVTLFPPSSEELQANKATLVCLISDFYPGAVTVAWKADSSPVKAGVETTTPSKQSNNKYAASSYLSLTPEQWKSHRSYSCQVTHEGSTVEKTVAPTECS
heavy: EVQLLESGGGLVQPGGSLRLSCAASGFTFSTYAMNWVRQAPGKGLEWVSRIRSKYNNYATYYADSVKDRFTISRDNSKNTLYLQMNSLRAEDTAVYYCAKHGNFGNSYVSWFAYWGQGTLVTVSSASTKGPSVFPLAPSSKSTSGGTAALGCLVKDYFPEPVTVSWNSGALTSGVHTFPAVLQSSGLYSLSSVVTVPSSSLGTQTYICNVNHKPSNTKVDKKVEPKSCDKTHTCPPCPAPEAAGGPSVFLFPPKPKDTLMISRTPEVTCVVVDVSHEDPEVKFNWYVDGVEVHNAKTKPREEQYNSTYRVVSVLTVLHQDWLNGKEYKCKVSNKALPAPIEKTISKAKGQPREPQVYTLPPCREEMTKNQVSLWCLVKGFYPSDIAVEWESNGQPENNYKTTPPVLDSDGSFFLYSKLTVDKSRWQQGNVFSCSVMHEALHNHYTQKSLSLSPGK
chain: EVQLVETGGGLIQPGGSLRLSCAASGFTVSDNYMTWVRQAPGKGLEWVSVIFSGGNTYYADSVKGRFTISRDNAKNTLYLQMNSLRAEDTALYYCARRNYDDTRGTDVFDIWGQGTMVTVSSGSEVQLVETGGGLIQPGGSLRLSCAASGFTVSDNYMTWVRQAPGKGLEWVSVIFSGGNTYYADSVKGRFTISRDNAKNTLYLQMNSLRAEDTALYYCARRNYDDTRGTDVFDIWGQGTMVTVSSASEPKSSDKTHTCPPCPAPEAAGGPSVFLFPPKPKDTLMISRTPEVTCVVVDVSHEDPEVKFNWYVDGVEVHNAKTKPREEQYNSTYRVVSVLTVLHQDWLNGKEYKCKVSNKALPAPIEKTISKAKGQPREPQVCTLPPSREEMTKNQVSLSCAVKGFYPSDIAVEWESNGQPENNYKTTPPVLDSDGSFFLVSKLTVDKSRWQQGNVFSCSVMHEALHNHYTQKSLSLSPGK
With B3 the EC50 (human BCMA [2]) was 3.95 nM, the “Maximum MFI” value (human BCMA [2]) was 3570 and the “Maximum MFI” value (cynomolgus monkey BCMA) was 16200. The “Maximum MFI” value (human BCMA [3]) was 17600.

B4: PR002901 (bispecific antibody, human IgG1, lambda, L234A L235A)
light: QAVVTQEPSLTVSPGGTVTLTCRSSTGAVTTSNYANWVQQKPGQAPRGLIGGTNKRAPWTPARFSGSLLGDKAALTLLGAQPEDEAEYFCALWYSNLWVFGGGTKLTVLGQPKAAPSVTLFPPSSEELQANKATLVCLISDFYPGAVTVAWKADSSPVKAGVETTTPSKQSNNKYAASSYLSLTPEQWKSHRSYSCQVTHEGSTVEKTVAPTECS
heavy: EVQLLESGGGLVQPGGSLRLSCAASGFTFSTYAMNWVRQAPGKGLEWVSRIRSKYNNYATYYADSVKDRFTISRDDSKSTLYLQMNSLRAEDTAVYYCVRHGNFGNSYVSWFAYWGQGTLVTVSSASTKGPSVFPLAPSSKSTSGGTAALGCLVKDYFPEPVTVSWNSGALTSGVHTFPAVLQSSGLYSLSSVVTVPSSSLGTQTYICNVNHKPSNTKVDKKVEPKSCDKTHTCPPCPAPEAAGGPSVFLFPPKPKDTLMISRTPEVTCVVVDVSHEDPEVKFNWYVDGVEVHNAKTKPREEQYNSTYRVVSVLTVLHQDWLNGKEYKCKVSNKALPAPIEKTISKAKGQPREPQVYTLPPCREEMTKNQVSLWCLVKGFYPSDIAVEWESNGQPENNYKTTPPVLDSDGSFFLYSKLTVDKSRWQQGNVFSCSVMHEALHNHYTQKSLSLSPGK
chain: EVQLVETGGGLIQPGGSLRLSCAASGFTVSDNYMTWVRQAPGKGLEWVSVIFSGGNTYYADSVKGRFTISRDNAKNTLYLQMNSLRAEDTALYYCARRNYDDTRGTDVFDIWGQGTMVTVSSGSGSEVQLVETGGGLIQPGGSLRLSCAASGFTVSDNYMTWVRQAPGKGLEWVSVIFSGGNTYYADSVKGRFTISRDNAKNTLYLQMNSLRAEDTALYYCARRNYDDTRGTDVFDIWGQGTMVTVSSASEPKSSDKTHTCPPCPAPEAAGGPSVFLFPPKPKDTLMISRTPEVTCVVVDVSHEDPEVKFNWYVDGVEVHNAKTKPREEQYNSTYRVVSVLTVLHQDWLNGKEYKCKVSNKALPAPIEKTISKAKGQPREPQVCTLPPSREEMTKNQVSLSCAVKGFYPSDIAVEWESNGQPENNYKTTPPVLDSDGSFFLVSKLTVDKSRWQQGNVFSCSVMHEALHNHYTQKSLSLSPGK
With B4 the EC50 (human BCMA [2]) was 2.32 nM, the “Maximum MFI” value (human BCMA [2]) was 4180 and the “Maximum MFI” value (cynomolgus monkey BCMA) was 11000. The EC50 (human BCMA [3]) was 0.654 nM and the “Maximum MFI” value (human BCMA [3]) was 14700.

B5: PR002959 (bispecific antibody, human IgG1, lambda, L234A L235A)
light: QAVVTQEPSLTVSPGGTVTLTCRSSTGAVTTSNYANWVQQKPGQAPRGLIGGTNKRAPWTPARFSGSLLGDKAALTLLGAQPEDEAEYFCALWYSNLWVFGGGTKLTVLGQPKAAPSVTLFPPSSEELQANKATLVCLISDFYPGAVTVAWKADSSPVKAGVETTTPSKQSNNKYAASSYLSLTPEQWKSHRSYSCQVTHEGSTVEKTVAPTECS
heavy: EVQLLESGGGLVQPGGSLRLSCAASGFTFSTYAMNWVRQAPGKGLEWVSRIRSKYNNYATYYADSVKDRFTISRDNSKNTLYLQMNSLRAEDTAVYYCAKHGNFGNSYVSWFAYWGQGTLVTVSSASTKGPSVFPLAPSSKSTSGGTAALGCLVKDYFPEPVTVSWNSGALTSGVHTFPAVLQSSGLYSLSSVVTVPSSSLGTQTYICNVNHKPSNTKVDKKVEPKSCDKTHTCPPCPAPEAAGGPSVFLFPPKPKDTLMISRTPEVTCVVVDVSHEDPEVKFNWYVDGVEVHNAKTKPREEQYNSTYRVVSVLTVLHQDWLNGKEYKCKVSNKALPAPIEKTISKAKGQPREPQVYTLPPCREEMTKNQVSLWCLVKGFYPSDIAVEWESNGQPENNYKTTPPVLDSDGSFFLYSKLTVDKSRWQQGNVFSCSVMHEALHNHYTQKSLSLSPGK
chain: EVQLVETGGGLIQPGGSLRLSCAASGFTVSDNYMTWVRQAPGKGLEWVSVIFSGGNTYYADSVKGRFTISRDNAKNTLYLQMNSLRAEDTALYYCARRNYDDTRGTDVFDIWGQGTMVTVSSGSGSEVQLVETGGGLIQPGGSLRLSCAASGFTVSDNYMTWVRQAPGKGLEWVSVIFSGGNTYYADSVKGRFTISRDNAKNTLYLQMNSLRAEDTALYYCARRNYDDTRGTDVFDIWGQGTMVTVSSASEPKSSDKTHTCPPCPAPEAAGGPSVFLFPPKPKDTLMISRTPEVTCVVVDVSHEDPEVKFNWYVDGVEVHNAKTKPREEQYNSTYRVVSVLTVLHQDWLNGKEYKCKVSNKALPAPIEKTISKAKGQPREPQVCTLPPSREEMTKNQVSLSCAVKGFYPSDIAVEWESNGQPENNYKTTPPVLDSDGSFFLVSKLTVDKSRWQQGNVFSCSVMHEALHNHYTQKSLSLSPGK
With B5 the EC50 (human BCMA [2]) was 4.3 nM, the “Maximum MFI” value (human BCMA [2]) was 4210 and the “Maximum MFI” value (cynomolgus monkey BCMA) was 30600. For the same binder, the “Maximum MFI” value (human BCMA [3]) was 23900.

B6: Anti-4-1BB heavy-chain antibody PR001838_G53A, hIgG1 (antibody, V domains shown)
VH: EVQLLESGGGLVQPGGSLRLSCAASGFTFSNYAMSWFRQPPETGLKWVSSIDASGGDTYYADSVKGRFTISRDNSKNTLYLQMNSLRAEDTAVYYCAKEGSHGTDDSHYDVDVWGQGTTVTVSS
notes: HCAb (heavy chain dimer, no light chain), hIgG1 Fc; also called PR004469
B6 was tested, and the EC50 [4] was 1.29 nM and the “Maximum MFI” value [4] was 109000 MFI.

B7: Anti-4-1BB heavy-chain antibody 1016P0010B11, hIgG1 (antibody, V domains shown)
VH: EVQLLESGGGLVQLGGSLRLSCAASGFTFSRYAMTWVRQAPEKGLEWVSSISGSGDDTYYGDSVKGRFTISRDNSQNTVYLQMNSLRAEDTAVYFCAKEKAGTTGDYYYNVDVWGQGTTVTVSS
notes: HCAb (heavy chain dimer, no light chain), hIgG1 Fc; also called PR001758
For B7, the EC50 [4] was 0.212 nM and the “Maximum MFI” value [4] was 1640 MFI.

B8: Anti-4-1BB heavy-chain antibody 1016P0020G4, hIgG1 (antibody, V domains shown)
VH: EVQLLESGGGLVQPGGSLRLSCAASGFIFSNFAMTWVRQPPEKGLKWVSSINGSGFNTYYTDSVKGRFTISRDNSRNTLYLQMNRLTAEDTAVYFCAKEGSSETDDHYYNVDVWGQGTTVTVSS
notes: HCAb (heavy chain dimer, no light chain), hIgG1 Fc; also called PR001836
For B8, the EC50 [4] was 0.28 nM and the “Maximum MFI” value [4] was 1830 MFI.

B9: Anti-4-1BB heavy-chain antibody 1016P0042C5, hIgG1 (antibody, V domains shown)
VH: EVQLLESGGGLVQPGGSLRLSCAASGFTFSNYAMTWVRQPPGKGLEWVSSISGSGGSTYYADSVKGRFTISRDNSKNTLYLQMNSLRAEDTAVYYCAKEGTGTTSDYYYNVDVWGQGTTVTVSS
notes: HCAb (heavy chain dimer, no light chain), hIgG1 Fc; also called PR001771
In the case of B9, the EC50 [4] is reported as 0.532 nM and the “Maximum MFI” value [4] is reported as 1720 MFI.

B10: Anti-4-1BB heavy-chain antibody 1016P0037D2, hIgG1 (antibody, V domains shown)
VH: EVQLVESGGGLVQPGGSLRLSCAASGFTFSSYWMHWVRQAPGKGLVWVSRINSDGSSTSYADSVQGRFTISRDNAKNTLYLQMNSLRAEDTAVYYCVRKGSSSYYHYSIEDDWGQGTLVTVSS
notes: HCAb (heavy chain dimer, no light chain), hIgG1 Fc; also called PR001840
For B10, the EC50 [4] was 0.43 nM and the “Maximum MFI” value [4] was 1790 MFI.
